The first assay deals with His-tagged human IL-18BP (human) (UniProt O95998). Put plainly: AlphaLISA of free IL-18BP. (In general: Alpha assays give light when donor and acceptor beads are brought close together.)
Chain of Fc fused human IL-18BP isoform a (IL-18BPa) (human) (O95998 31-194): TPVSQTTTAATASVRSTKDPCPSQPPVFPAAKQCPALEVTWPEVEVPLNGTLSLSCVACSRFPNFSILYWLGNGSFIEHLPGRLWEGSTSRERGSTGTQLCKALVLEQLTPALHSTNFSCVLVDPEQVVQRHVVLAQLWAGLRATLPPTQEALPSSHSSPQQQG
As to “IL-18 variant SEQ ID NO: 207 (V11I, C38A, M51G, K53A, C76A, C127A) (from UniProt Q14116 37-193) (ligand)”, the dissociation constant Kd is 373 nM.
“IL-18 variant SEQ ID NO: 205 (V11I, C38A, K53A, T63A, C76A, C127A) (from UniProt Q14116 37-193) (ligand)” registered a Kd of 0.66 nM.
The substance “IL-18 variant SEQ ID NO: 6 with 30 kDa PEG (E6K, V11I, C38A, K53A, T63A, C68A, C76A, C127A, D98C-30kPEG) (from UniProt Q14116 37-193) (ligand)” registered a Kd of 20.2 nM.
Same read-out and setting: the same measure for “IL-18 variant SEQ ID NO: 215 (V11I, E31A, D37A, C38A, K53A, C76A, C127A) (from UniProt Q14116 37-193) (ligand)”: 2.12 nM; for “IL-18 variant SEQ ID NO: 59 (E6K, C38A, K53A) (from UniProt Q14116 37-193) (ligand)”: 36.4 nM.
Still for that read-out and setting: next, “IL-18 variant SEQ ID NO: 210 (V11I, E31A, C38A, K53A, C76A, C127A) (from UniProt Q14116 37-193) (ligand)”: 0.64 nM.
Same read-out and setting: next, “IL-18 variant SEQ ID NO: 30 with 30 kDa PEG (E6K, V11I, C38A, K53A, T63A, C76A, C127A, C68-30kPEG) (from UniProt Q14116 37-193) (ligand)”: 26.3 nM; “IL-18 variant SEQ ID NO: 206 (V11I, C38A, K53A, S55A, C76A, C127A) (from UniProt Q14116 37-193) (ligand)”: 9.74 nM.
On to “IL-18 variant SEQ ID NO: 5 with 30 kDa PEG (E6K, V11I, C38A, K53A, T63A, C68A, C76A, C127A, M86C-30kPEG) (from UniProt Q14116 37-193) (ligand)”, for which the Kd was determined as 31.4 nM.
The same measure, in the same setting: the same measure for “IL-18 variant SEQ ID NO: 232 (E6K, V11I, C38A, I49M, K53A, T63A, C76A, C127A) (from UniProt Q14116 37-193) (ligand)”: 25.8 nM; for “IL-18 variant SEQ ID NO: 219 (V11I, C38A, K53A, C76A, G108A, C127A) (from UniProt Q14116 37-193) (ligand)”: 1.24 nM; for “IL-18 variant SEQ ID NO: 4 with 30 kDa PEG (E6K, C38A, K53A, C68A, M86C-30kPEG) (from UniProt Q14116 37-193) (ligand)”: 129 nM.
Consider “IL-18 variant SEQ ID NO: 11 (E6K, V11I, C38A, K53A, C76A, C127A) (from UniProt Q14116 37-193) (ligand)”, for which the Kd was found to be 36.8 nM.
Same read-out and setting: next, “IL-18 variant SEQ ID NO: 9 (E6K, C38A, K53A, C68A, D98C) (from UniProt Q14116 37-193) (ligand)”: 82.7 nM; “IL-18 variant SEQ ID NO: 8 (E6K, V11I, C38A, K53A, T63A, C68A, C76A, T95C, C127A) (from UniProt Q14116 37-193) (ligand)”: 61.1 nM.
“IL-18 variant SEQ ID NO: 28 with 30 kDa PEG (E6K, C38A, K53A, T63A, C76A, C127A, C68-30kPEG) (from UniProt Q14116 37-193) (ligand)” came in with a Kd of 40.7 nM.
“IL-18 variant SEQ ID NO: 59 with 10 kDa PEG (E6K, C38A, K53A, C68-10kPEG) (from UniProt Q14116 37-193) (ligand)” came in with a Kd of 50.7 nM.
In turn, “IL-18 variant SEQ ID NO: 225 (V11I, C38A, S55H, C76A, C127A) (from UniProt Q14116 37-193) (ligand)” yielded a Kd of 0.08 nM.
On the same count and under the same terms, next, “IL-18 variant SEQ ID NO: 212 (V11I, D35A, C38A, K53A, C76A, C127A) (from UniProt Q14116 37-193) (ligand)”: 2.88 nM.
“IL-18 variant SEQ ID NO: 9 with 30 kDa PEG (E6K, C38A, K53A, C68A, D98C-30kPEG) (from UniProt Q14116 37-193) (ligand)” had a dissociation constant (Kd) of 151 nM.
On the same count and under the same terms, the same measure for “IL-18 variant SEQ ID NO: 204 (V11I, C38A, K53A, C76A, C127A) (from UniProt Q14116 37-193) (ligand)”: 8.86 nM; for “IL-18 variant SEQ ID NO: 4 (E6K, C38A, K53A, C68A, M86C) (from UniProt Q14116 37-193) (ligand)”: 55.6 nM; for “IL-18 variant SEQ ID NO: 243 (Y1M, E6K, V11I, C38A, K53A, T63A, C76A, C127A) (from UniProt Q14116 38-193) (ligand)”: 2.25 nM.
Same read-out and setting: the same measure for “IL-18 variant SEQ ID NO: 214 (V11I, D37A, C38A, K53A, C76A, C127A) (from UniProt Q14116 37-193) (ligand)”: 4.55 nM.
Same read-out and setting: the same measure for “IL-18 variant SEQ ID NO: 229 (V11I, C38A, C76A, S105K, C127A) (from UniProt Q14116 37-193) (ligand)”: 0.05 nM; for “IL-18 variant SEQ ID NO: 228 (V11I, C38A, C76A, S105I, C127A) (from UniProt Q14116 37-193) (ligand)”: 0.04 nM; for “IL-18 variant SEQ ID NO: 6 (E6K, V11I, C38A, K53A, T63A, C68A, C76A, D98C, C127A) (from UniProt Q14116 37-193) (ligand)”: 631 nM.
“IL-18 variant SEQ ID NO: 59 with 20 kDa PEG (E6K, C38A, K53A, C68-20kPEG) (from UniProt Q14116 37-193) (ligand)” showed an equilibrium dissociation constant (Kd) of 48.5 nM.
Substance “IL-18 variant SEQ ID NO: 218 (V11I, C38A, K53A, C76A, C127A, D132A) (from UniProt Q14116 37-193) (ligand)” came in with a Kd of 13.7 nM.
Same read-out and setting: next, “IL-18 variant SEQ ID NO: 240 (E6R, V11I, C38A, K53A, T63A, C76A, C127A) (from UniProt Q14116 37-193) (ligand)”: 5.46 nM; “IL-18 variant SEQ ID NO: 222 (K8R, V11I, C38A, C76A, Q103E, C127A) (from UniProt Q14116 37-193) (ligand)”: 0.06 nM; “IL-18 variant SEQ ID NO: 227 (V11I, C38A, S55T, C76A, C127A) (from UniProt Q14116 37-193) (ligand)”: 0.02 nM.
Still for that read-out and setting: next, “IL-18 variant SEQ ID NO: 28 (E6K, C38A, K53A, T63A, C76A, C127A) (from UniProt Q14116 37-193) (ligand)”: 44.4 nM; “IL-18 variant SEQ ID NO: 226 (V11I, C38A, S55R, C76A, C127A) (from UniProt Q14116 37-193) (ligand)”: 0.15 nM.
“IL-18 variant SEQ ID NO: 213 (V11I, S36A, C38A, K53A, C76A, C127A) (from UniProt Q14116 37-193) (ligand)” yielded a Kd of 1.12 nM.
On the same count and under the same terms, next, “IL-18 variant SEQ ID NO: 211 (V11I, T34A, C38A, K53A, C76A, C127A) (from UniProt Q14116 37-193) (ligand)”: 1.24 nM.
For “IL-18 variant SEQ ID NO: 209 (F2A, V11I, C38A, K53A, C76A, C127A) (from UniProt Q14116 37-193) (ligand)”, the Kd amounted to 57.2 nM.
The same measure, in the same setting: the same measure for “IL-18 variant SEQ ID NO: 217 (V11I, C38A, N41A, K53A, C76A, C127A) (from UniProt Q14116 37-193) (ligand)”: 18.5 nM.
On the same count and under the same terms, next, “IL-18 variant SEQ ID NO: 208 (V11I, C38A, K53A, D54A, C76A, C127A) (from UniProt Q14116 37-193) (ligand)”: 25.8 nM; “IL-18 variant SEQ ID NO: 230 (K8L, E6K, V11I, C38A, K53A, T63A, C76A, C127A) (from UniProt Q14116 37-193) (ligand)”: 0.14 nM.
On the same count and under the same terms, the same measure for “IL-18 variant SEQ ID NO: 5 (E6K, V11I, C38A, K53A, T63A, C68A, C76A, M86C, C127A) (from UniProt Q14116 37-193) (ligand)”: 181 nM; for “IL-18 variant SEQ ID NO: 223 (K8E, V11I, C38A, C76A, Q103R, C127A) (from UniProt Q14116 37-193) (ligand)”: 0.85 nM; for “IL-18 variant SEQ ID NO: 220 (V11I, C38A, K53A, C76A, H109A, C127A) (from UniProt Q14116 37-193) (ligand)”: 0.55 nM.
In turn, “IL-18 variant SEQ ID NO: 221 (V11I, C38A, K53A, C76A, D110A, C127A) (from UniProt Q14116 37-193) (ligand)” showed a Kd of 0.71 nM.
For the substance “IL-18 variant SEQ ID NO: 216 (V11I, C38A, D40A, K53A, C76A, C127A) (from UniProt Q14116 37-193) (ligand)”, the Kd stood at 0.74 nM.
Substance “IL-18 variant SEQ ID NO: 224 (V11I, C38A, C76A, Q103K, C127A) (from UniProt Q14116 37-193) (ligand)” yielded a Kd of 0.05 nM.

A further assay has as its target Fc fused human IL-18BP isoform a (IL-18BPa) (human) (UniProt O95998). Put plainly: SPR, Fc-IL-18BPa captured, 1:1 fit. A general note: Surface plasmon resonance follows binding to a sensor surface in real time, without labels.
On to “IL-18 variant SEQ ID NO: 61 (E6K, C38A, K53A, C76A) (from UniProt Q14116 37-193) (ligand)”, for which the Kd was 2.1 nM, the koff worked out at 0.0036 s⁻¹ and the kon was found to be 1.74e+06 M⁻¹ s⁻¹.
For “IL-18 variant SEQ ID NO: 59 (E6K, C38A, K53A) (from UniProt Q14116 37-193) (ligand)”, in that order: 2.05 nM, 0.00301 s⁻¹ and 1.47e+06 M⁻¹ s⁻¹.
For “IL-18 variant SEQ ID NO: 30 with 30 kDa PEG (E6K, V11I, C38A, K53A, T63A, C76A, C127A, C68-30kPEG) (from UniProt Q14116 37-193) (ligand)”, in that order: 45.1 nM, 0.00451 s⁻¹ and 106000 M⁻¹ s⁻¹.
The substance “IL-18 variant SEQ ID NO: 61 with 30 kDa PEG (E6K, C38A, K53A, C76A, C68-30kPEG) (from UniProt Q14116 37-193) (ligand)” displayed a Kd of 37.4 nM, a koff of 0.00382 s⁻¹ and a kon of 102000 M⁻¹ s⁻¹.

In general, Kd refers to the free concentration of one partner at which half of the binding sites on the other are occupied at equilibrium, for simple one-to-one binding. Higher therefore signals lower affinity. As a reminder, the koff is the first-order rate constant of dissociation. Read a high koff as fast dissociation. What is called kon is a measure of how fast the partners come together. Lower therefore signals slower complex formation.

The values are drawn from patent US20250186594A1.
